Several values for one entry are separate records, joined by “and”; a condition that tells them apart may be missing. Identical values can stand only once.
Tests used:
gramicidin A = assay: native MS
LL-37 (human) = assay: native MS

Substance	stoichiometry N (gramicidin A)	stoichiometry N (LL-37 (human))
gramicidin A (peptide)	2	–
LL-37 (peptide)	–	2 and 3 and 4

Source: paper PMC6635019
